# Data published in US9164103B2, “Monitoring and inhibiting human immunodeficiency virus infection by modulating HMGB1 dependent triggering of HIV-1 replication and persistence” (priority 2008, dated 2015).
# B1: rh-HMGB1: recombinant human HMGB1 protein (R&D Systems), added exogenously (protein, UniProt P09429 1-215, looked up)
# High mobility group protein B1: MGKGDPKKPRGKMSSYAFFVQTCREEHKKKHPDASVNFSEFSKKCSERWKTMSAKEKGKFEDMAKADKARYEREMKTYIPPKGETKKKFKDPNAPKRPPSAFFLFCSEYRPKIKGEHPGLSIGDVAKKLGEMWNNTAADDKQPYEKKAAKLKEKYEKDIAAYRAKGKPDAAKKGVVKAEKSKKKKEEEEDEEDEEDEEEEEDEEDEDEEEDDDDE
# Key:
# R5-HIV-1Ba-L = test: HIV-1 replication in infected iDCs (p24 ELISA in culture supernatant); type: cell-based; conditions: 3 days, 1 μg/ml
# Procedure: FIGS. 6 (a), (b) and (c). Exogenous rh-HMGB1 triggers HIV-1 and HIV-2 replication in iDC. (a) HIV-1-infected iDC were cultured alone or in the presence of aNK cells for 3 days. Rh-HMGB1 (1 μg/ml) was added in some cultures. HIV replication was measured by p24 quantification in culture supernatant (b) HIV1-infected iDC were cultured alone or in the presence of aNK cells for 3 days. Blocking anti-HMGB1 antibodies (10 μg/ml) or glycyrrhizin (10 μg/ml) were added at culture initiation. HIV replication was measured by p24 quantification in culture supernatant. The mean±sd of three independent experiments is shown. Statistical comparisons were made with the non parametric Mann-Whitney test. * p<0.05; (c) HIV-2-infected iDC were cultured alone or in the presence of aNK cells for 3 days. Rh-HMGB1 (1 μg/ml) was added in some cultures. HIV replication was measured by p24 quantification in culture supernatant.
# Exogenous HMGB1 was recently reported to increase HIV-1 replication in infected monocytic cell lines38, and to induce in vitro the reactivation of HIV-1 in PBMCs from HIV-1-infected patients under antiretroviral therapy39. Therefore, the question of the role of HMGB1 in the NK-dependent triggering of HIV replication in DCs was addressed. […] To investigate the influence of HMGB1 in the triggering of HIV-1 replication in infected-iDC-aNK cocultures, HMGB1-specific neutralizing antibodies or glycyrrhizin were added to these cocultures and p24 production was measured in the supernatant. […] They also indicate that aNK cell-dependent stimulation of HIV-1 replication in iDCs is mediated by HMGB1.
# Virus stock preparation was prepared by amplification of R5-HIV-1Ba-L on MDM from healthy donors. Viral stock was then clarified by centrifugation prior to determination of HIV1 p24 concentration. iDCs were plated in 96-well culture plates at 200,000 cells/well and incubated for 3 hours at 37° C. in a 5% CO2 atmosphere with R5-HIV-1BAL at various concentrations (0.001 to 10 ng p24/ml). Cells were harvested, washed four times with media containing 10% FCS and, when indicated, rNK or aNK cells were added at a NK:DC ratio of 1:5, unless otherwise indicated. NK-DC cocultures lasted 24 h before analysis of the maturation stage of DCs and/or quantification of viral production. In some experiments (FIG. 6), HIV-1 infected iDCs were incubated alone or with aNK cells for 3 days, in the presence of rh-HMGB1 (1 μg/ml) (R&DSystems), and in some cultures in the presence of rabbit antiHMGB1 Abs (10 μg/ml) (Abcam, Cambridge, UK) or Glycyrrhizin (10 μg/ml).
# The concentration of HIV-1 in the supernatant of infected cell cultures was determined by measuring the amount of p24 protein by ELISA (Ingen, Belgium). DNA from cells was extracted using the GIAamp DNA Blood Mini Kit (Qiagen, Basel, Switzerland) and quantified HIV-1 proviral load by RT-PCR as described previously54. The frequency of HIV-1-infected cells was determined by flow cytometry to detect intracellular p24 molecule. Cells were surface stained with antibodies specific for CD40 (BD Biosciences, San Jose, Calif.) to target DC and intracellular stained with p24-specific antibodies (Coulter). Stained cells were fixed in 1% PFA, immediately acquired on a FACScalibur (Becton Dickinson) and analyzed with FlowJo software. In some experiments infected DCs were imaged, after immunofluorescence, by laser scanning confocal microscopy.
# iDC = test: Direct phenotypic maturation of iDCs (flow cytometry of maturation markers); type: cell-based, human
# Source text: Co-staining with HLA-DR and CD86 specific antibodies allowed the identification of mature DCs (CD86^brightHLA-DR^bright). Data from a representative experiment out of three independent experiments are shown. […] The proportion of mDCs induced by LPS (DC0) (78.1% CD86^brightHLA-DR^bright) is shown as a positive control. […] These experiments have been performed on primary cells from a number of donors, and representative data from three of them are shown. When indicated, statistical analyses were made with the non parametric Mann-Whitney test. * p<0.05, ** p=0.02.
# The maturation status of DCs was determined by flow cytometry with CD86 and HLA-DR—specific antibodies. […] (b) iDC (10^6 cells/ml) were cultured for 48 h with increasing concentrations (1-10 μg/ml) of rh-HMGB1. Cells were then stained with anti-CD86, -HLA-DR, -CD80, -CD83, DC-LAMP and -CD40 antibodies and analyzed by flow cytometry.
# RAGE = test: Surface expression of RAGE on DCs (flow cytometry); type: cell-based, human; conditions: uninfected iDCs, 1 μg/ml
# Procedure: (d) Flow cytometry detection of surface expression of RAGE by iDCs, DC0, or iDCs incubated with rh-HMGB1 (1 μg/ml). iDCs were either non infected or infected with HIV-1 (1 ng/ml p24 for 3 h). (e) iDC, DC0, uninfected or HIV-1-infected iDC cocultured for 24 h with aNK cells, were incubated with rh-HMGB1 (1 μg/ml) and subsequently stained with anti-RAGE antibodies and analyzed by flow cytometry. NK cells were excluded from the analysis through the co-staining with CD3- and CD56-specific antibodies (CD3^−CD56^+).
# The possible involvement of RAGE during NK-DC cross-talk was evaluated with the same approach, comparing RAGE expression on DCs cocultured with aNK cells and DC cultured alone.
# Phenotypic analysis of DCs and characterization of their maturation stage was performed by flow cytometry. DCs were stained for 20 min at 4° C. with antibodies specific for CD80, CD83, CD86, HLA-DR, CD40, DC-LAMP or DC-SIGN (all antibodies from BD Biosciences, San Jose, Calif.) diluted in 100 μl of PBS/10% FCS/0.1% NaN3. In some experiments, antibody specific for HMGB1-receptor, RAGE (Abcam), was used to stain DCs. After two washings, cells were fixed in 1% PFA, immediately acquired on a FACScalibur (Becton Dickinson) and analyzed with Flow Jo software.
# HIV-2 = HIV-2 replication in infected iDCs (p24 ELISA in culture supernatant); type: cell-based; conditions: HIV-2-infected iDC, day 3
# Procedure: FIGS. 6 (a), (b) and (c). Exogenous rh-HMGB1 triggers HIV-1 and HIV-2 replication in iDC. (a) HIV-1-infected iDC were cultured alone or in the presence of aNK cells for 3 days. Rh-HMGB1 (1 μg/ml) was added in some cultures. HIV replication was measured by p24 quantification in culture supernatant (b) HIV1-infected iDC were cultured alone or in the presence of aNK cells for 3 days. Blocking anti-HMGB1 antibodies (10 μg/ml) or glycyrrhizin (10 μg/ml) were added at culture initiation. HIV replication was measured by p24 quantification in culture supernatant. The mean±sd of three independent experiments is shown. Statistical comparisons were made with the non parametric Mann-Whitney test. * p<0.05; (c) HIV-2-infected iDC were cultured alone or in the presence of aNK cells for 3 days. Rh-HMGB1 (1 μg/ml) was added in some cultures. HIV replication was measured by p24 quantification in culture supernatant. […]
# 2—NK-DC cocultures: cells were harvested, washed three times with RPMI containing 10% FCS and, when indicated, aNK cells were added at a NK:DC ratio of 1:5. […] NK-DC cocultures lasted 3 to 7 days before quantification of viral production in culture supernatants.
# 3—Quantification of HIV-2 viral production: the concentration of HIV-2 particles in the supernatants was determined with the p24 ELISA kit (Ingen, Belgium).
# iDCs = test: Cytokine and chemokine production by DCs (MAP/Luminex); type: cell-based, human; conditions: iDCs 48 h, 1 or 10 μg/ml
# Procedure: FIG. 3 (a)-(e). aNK-dependent maturation of HIV-1-infected iDCs is mediated by HMGB1 and involves RAGE. (a) Left panel: iDCs were cultured for 24 h either alone or with aNK cells, in the presence of blocking anti-HMGB1 antibodies (10 μg/ml) or glycyrrhizin (10 μg/ml). The maturation status of DCs was determined by flow cytometry with CD86 and HLA-DR—specific antibodies. Right panel: same experiment, but performed with HIV-1 infected iDCs. Data represent mean±sd of at least three independent experiments, and statistical comparisons were made with the non parametric Mann-Whitney test. * p<0.05. (b) iDC (10^6 cells/ml) were cultured for 48 h with increasing concentrations (1-10 μg/ml) of rh-HMGB1. Cells were then stained with anti-CD86, -HLA-DR, -CD80, -CD83, DC-LAMP and -CD40 antibodies and analyzed by flow cytometry. (c) Influence of rh-HMGB1 on cytokine and chemokine production (determined by MAP) by DCs. iDCs (10^6 cells/ml) were incubated for 48 h in medium or in presence of rh-HMGB1 (1 or 10 μg/ml). As a positive control, iDCs were stimulated with LPS (DC0). […] (e) iDC, DC0, uninfected or HIV-1-infected iDC cocultured for 24 h with aNK cells, were incubated with rh-HMGB1 (1 μg/ml) and subsequently stained with anti-RAGE antibodies and analyzed by flow cytometry. […]
molecule,measurement,setting,value
B1,p24 production,R5-HIV-1Ba-L; HIV-1-infected iDC cocultured with aNK cells,significant stimulatory effect
same,production of p24 in culture supernatants,R5-HIV-1Ba-L; HIV-1-infected iDC cultured alone,enhancing dramatically the production of p24
same,percentage of CD86bright HLA-DRbright DCs,"iDC; 10 μg/ml, 48 h of culture, medium alone 65%",71%
same,phenotypic maturation of iDC,"iDC; 1 to 10 μg/ml, 24 h, similar at 48 h",did not induce phenotypic maturation of iDC
same,"expression of CD80, CD83 and DC-lamp",iDC; rh-HMGB1-treated DCs compared with mDC (DC0),not fully mature
same,RAGE expression on iDCs,RAGE,down-regulation of RAGE
same,HIV-2 viral replication (p24),HIV-2,slight increase in viral replication
same,"release of the chemokines MCP1, MIP-1α, MIP-1β and IL-8",iDCs,increased release
